Data published in the supplement of paper PMC9112550, “Optimization of the antimicrobial peptide Bac7 by deep mutational scanning” (BMC Biology, 2022).

Tested on: Escherichia coli TOP10
Test: shrunken log2 fold change of peptide-encoding DNA abundance (4.5 h post-induction vs induction); higher = less antimicrobial activity (less host growth inhibition)
Conditions: time post-induction: 4.5 h; library: site-saturation at positions 5, 18, 19, 20
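Further: peptides expressed intracellularly from a pBAD plasmid library in pooled LB shake-flask culture, induced with 0.3% L-arabinose, DNA abundance read by NGS, three biological replicates, DESeq2 with apeglm shrinkage.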

Row | Sequence | shrunken log2 fold change
1 | RRIRTRPPRLPRPRPRPQAFPRP | 0.0884
2 | RRIRIRPPRLPRPRPRPMKKPRP | 0.0138
3 | RRIRTRPPRLPRPRPRPCCTPRP | -0.0782
4 | RRIRHRPPRLPRPRPRPNMHPRP | 1.05
5 | RRIRLRPPRLPRPRPRPPSQPRP | 0.756
6 | RRIRYRPPRLPRPRPRPAGDPRP | -0.232
7 | RRIRERPPRLPRPRPRPWDMPRP | -0.212
8 | RRIRWRPPRLPRPRPRPTFQPRP | 0.131
9 | RRIRKRPPRLPRPRPRPWKMPRP | 0.0749
10 | RRIRMRPPRLPRPRPRPKKDPRP | 0.942
11 | RRIRDRPPRLPRPRPRPNDTPRP | 0.0133
12 | RRIRMRPPRLPRPRPRPTLLPRP | 0.2
13 | RRIRQRPPRLPRPRPRPECIPRP | -0.269
14 | RRIRTRPPRLPRPRPRPSWNPRP | -0.34
15 | RRIRDRPPRLPRPRPRPVTCPRP | -0.00663
16 | RRIRPRPPRLPRPRPRPVTCPRP | -0.237
17 | RRIRKRPPRLPRPRPRPYVAPRP | 0.111
18 | RRIRMRPPRLPRPRPRPRRTPRP | 1.76
19 | RRIRGRPPRLPRPRPRPKDDPRP | 0.293
20 | RRIRGRPPRLPRPRPRPSSTPRP | 0.446
21 | RRIRRRPPRLPRPRPRPWQAPRP | 0.0707
22 | RRIRYRPPRLPRPRPRPLWAPRP | -0.25
23 | RRIRERPPRLPRPRPRPGNKPRP | -0.00852
24 | RRIRNRPPRLPRPRPRPHEMPRP | -0.33
25 | RRIRGRPPRLPRPRPRPFMPPRP | -0.0647

Row | Sequence | shrunken log2 fold change
26 | RRIRMRPPRLPRPRPRPDDVPRP | -0.00192
27 | RRIRQRPPRLPRPRPRPWVEPRP | 0.0249
28 | RRIRRRPPRLPRPRPRPMYDPRP | -0.267
29 | RRIRKRPPRLPRPRPRPHQNPRP | 0.0256
30 | RRIRDRPPRLPRPRPRPQLNPRP | -0.267
31 | RRIRPRPPRLPRPRPRPQLQPRP | -0.167
32 | RRIRSRPPRLPRPRPRPWVPPRP | 0.177
33 | RRIRNRPPRLPRPRPRPHKVPRP | -0.513
34 | RRIRWRPPRLPRPRPRPGKNPRP | 0.13
35 | RRIRFRPPRLPRPRPRPCTSPRP | -0.0377
36 | RRIRERPPRLPRPRPRPCLKPRP | 0.0135
37 | RRIRYRPPRLPRPRPRPPYIPRP | -0.496
38 | RRIRVRPPRLPRPRPRPPDGPRP | 0.422
39 | RRIRIRPPRLPRPRPRPTIRPRP | -0.995
40 | RRIRSRPPRLPRPRPRPAWMPRP | -0.263
41 | RRIRSRPPRLPRPRPRPDHMPRP | -0.00607
42 | RRIRERPPRLPRPRPRPPESPRP | 0.16
43 | RRIRCRPPRLPRPRPRPHHTPRP | -1.04
44 | RRIRVRPPRLPRPRPRPGGPPRP | 0.0704
45 | RRIRVRPPRLPRPRPRPNTVPRP | -0.0689
46 | RRIRRRPPRLPRPRPRPYEQPRP | -0.214
47 | RRIRMRPPRLPRPRPRPGCRPRP | 1.22
48 | RRIRTRPPRLPRPRPRPSNMPRP | -0.851
49 | RRIRWRPPRLPRPRPRPEHSPRP | 0.114
50 | RRIRTRPPRLPRPRPRPSLPPRP | -0.0317

Row | Sequence | shrunken log2 fold change
51 | RRIRQRPPRLPRPRPRPFKWPRP | -0.185
52 | RRIRWRPPRLPRPRPRPPIRPRP | -0.0117
53 | RRIRQRPPRLPRPRPRPVGTPRP | -0.0913
54 | RRIRVRPPRLPRPRPRPADIPRP | -0.235
55 | RRIRVRPPRLPRPRPRPHRWPRP | 0.0461
56 | RRIRYRPPRLPRPRPRPDNEPRP | -0.258
57 | RRIRWRPPRLPRPRPRPYTEPRP | -0.118
58 | RRIRRRPPRLPRPRPRPEGTPRP | 0.28
59 | RRIRKRPPRLPRPRPRPMEVPRP | 0.101
60 | RRIRTRPPRLPRPRPRPAEDPRP | 0.17
61 | RRIRSRPPRLPRPRPRPFQNPRP | -0.3
62 | RRIRSRPPRLPRPRPRPFQYPRP | -0.177
63 | RRIRLRPPRLPRPRPRPYEDPRP | -0.125
64 | RRIRPRPPRLPRPRPRPRWFPRP | 0.405
65 | RRIRMRPPRLPRPRPRPCFKPRP | 0.145
66 | RRIRRRPPRLPRPRPRPDNSPRP | -0.078
67 | RRIRTRPPRLPRPRPRPCDGPRP | 0.134
68 | RRIRNRPPRLPRPRPRPFRSPRP | 0.033
69 | RRIRHRPPRLPRPRPRPWQIPRP | -0.453
70 | RRIRNRPPRLPRPRPRPESCPRP | 0.073
71 | RRIRDRPPRLPRPRPRPLWDPRP | -0.0822
72 | RRIRTRPPRLPRPRPRPDTNPRP | -0.558
73 | RRIRTRPPRLPRPRPRPQFEPRP | 0.0219
74 | RRIRPRPPRLPRPRPRPGVVPRP | 0.215
75 | RRIRNRPPRLPRPRPRPVCWPRP | 0.469

Row | Sequence | shrunken log2 fold change
76 | RRIRHRPPRLPRPRPRPSMMPRP | -0.407
77 | RRIRNRPPRLPRPRPRPHSTPRP | -0.412
78 | RRIRIRPPRLPRPRPRPHKWPRP | -0.256
79 | RRIRARPPRLPRPRPRPMTYPRP | -0.086
80 | RRIRLRPPRLPRPRPRPQMHPRP | -0.295
81 | RRIRERPPRLPRPRPRPPAQPRP | 0.0318
82 | RRIRHRPPRLPRPRPRPYAPPRP | -0.737
83 | RRIRYRPPRLPRPRPRPHCAPRP | -0.544
84 | RRIRGRPPRLPRPRPRPNHLPRP | -0.226
85 | RRIRHRPPRLPRPRPRPYTTPRP | -1.14
86 | RRIRWRPPRLPRPRPRPFIRPRP | 0.0247
87 | RRIRIRPPRLPRPRPRPELHPRP | -0.2
88 | RRIRTRPPRLPRPRPRPRFGPRP | 0.319
89 | RRIRERPPRLPRPRPRPQAYPRP | -0.131
90 | RRIRDRPPRLPRPRPRPKWPPRP | 0.466
91 | RRIRVRPPRLPRPRPRPTMYPRP | -0.245
92 | RRIRMRPPRLPRPRPRPFAHPRP | -0.00592
93 | RRIRWRPPRLPRPRPRPGFVPRP | 0.291
94 | RRIRERPPRLPRPRPRPLMRPRP | 0.839
95 | RRIRYRPPRLPRPRPRPINLPRP | -0.145
96 | RRIRRRPPRLPRPRPRPACAPRP | 0.727
97 | RRIRFRPPRLPRPRPRPKLMPRP | 0.195
98 | RRIRARPPRLPRPRPRPFQMPRP | -0.0651
99 | RRIRTRPPRLPRPRPRPQPYPRP | -0.322
100 | RRIRLRPPRLPRPRPRPYHAPRP | -0.186

Row | Sequence | shrunken log2 fold change
101 | RRIRDRPPRLPRPRPRPNKWPRP | -0.0744
102 | RRIRCRPPRLPRPRPRPFWAPRP | -0.0403
103 | RRIRRRPPRLPRPRPRPCFYPRP | -0.187
104 | RRIRHRPPRLPRPRPRPEVPPRP | -0.00339
105 | RRIRSRPPRLPRPRPRPSTPPRP | -0.0374
106 | RRIRYRPPRLPRPRPRPAAWPRP | 0.00758
107 | RRIRSRPPRLPRPRPRPKMKPRP | 0.912
108 | RRIRSRPPRLPRPRPRPDCRPRP | 0.0345
109 | RRIRIRPPRLPRPRPRPNILPRP | -0.557
110 | RRIRHRPPRLPRPRPRPYIHPRP | -0.322
111 | RRIRLRPPRLPRPRPRPNQSPRP | -0.0737
112 | RRIRRRPPRLPRPRPRPKSWPRP | 0.249
113 | RRIRVRPPRLPRPRPRPNCMPRP | -0.222
114 | RRIRHRPPRLPRPRPRPSIGPRP | -0.335
115 | RRIRLRPPRLPRPRPRPRIKPRP | -0.168
116 | RRIRLRPPRLPRPRPRPISIPRP | 0.111
117 | RRIRERPPRLPRPRPRPPSYPRP | -0.0583
118 | RRIRPRPPRLPRPRPRPHDFPRP | -0.145
119 | RRIRNRPPRLPRPRPRPGRFPRP | 0.327
120 | RRIRDRPPRLPRPRPRPHMIPRP | -0.125
121 | RRIRSRPPRLPRPRPRPCLDPRP | -0.224
122 | RRIRLRPPRLPRPRPRPLCMPRP | -0.467
123 | RRIRTRPPRLPRPRPRPESSPRP | -0.0341
124 | RRIRMRPPRLPRPRPRPHTAPRP | -0.000764
125 | RRIRSRPPRLPRPRPRPLKKPRP | 0.0577
